Assay results: article PMC2397485 (2008)

What was measured:
Assay in all cases: high-speed co-sedimentation
[1] = molecular target: F-actin (skeletal muscle) (Oryctolagus cuniculus, UniProt P68135)
[2] = molecular target: F-actin (Saccharomyces cerevisiae, UniProt P60010)
[3] = molecular target: F-actin (act1-102) (Saccharomyces cerevisiae, UniProt P60010)

| Kd [1] [µM] | Kd [2] [µM] | Kd [3] [µM] | Binder |
| --- | --- | --- | --- |
| 7.1 | – | – | Scp1(1-180) 1-180 (protein) MSYDKKADVTSLDEDLRQLRESKFSPEAIQNIKIWVYKSVLKEIAPPGDLLECLKDGTVLCKLANILYEADTGEANHISWKSSKMPFVQMDQISQFLSFSRKYGVPEDELFQTIDLFEKKDPAIVFQTLKSLSRYANKKHTDRFPVLGPQLSTKKPRPPVKSKPKHLQDGTGWSTFEYGY |
| 2.1 | 1.3 | 7.9 | Scp1 (protein) SYDKKADVTSLDEDLRQLRESKFSPEAIQNIKIWVYKSVLKEIAPPGDLLECLKDGTVLCKLANILYEADTGEANHISWKSSKMPFVQMDQISQFLSFSRKYGVPEDELFQTIDLFEKKDPAIVFQTLKSLSRYANKKHTDRFPVLGPQLSTKKPRPPVKSKPKHLQDGTGWSTFEYGYMKGASQATEGVVLGQRRDIV |
